Results reported in the supplement of paper PMC10567573.

B1: EFHC1 (parent)
chain: NIYYYLEDDSMSVIEPVVENSGIL
B2: PLD5 (parent)
chain: KRTYWPDLDAKIREALVLRSVRVR

Variants of: B1
Test: protein stability index of a GFP-peptide fusion (GPS, HEK-293T) (PSI 1-6); higher = more stable
Conditions: c terminus: a fixed tail appended
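Further: lentivirally expressed fusions sorted by FACS into six bins by GFP to DsRed ratio, PSI derived from sequencing read proportions per bin multiplied by bin number.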

Variant	protein stability index
NIYYYLEDDSMSVIEPVVENSGIV [L24V]	2.21
NIYYYLEDDSMSVIEPVVENSGIW [L24W]	1.4
NIYYYLEDDSMSVIEPVVENSGIY [L24Y]	2.31

Variants of: B2
Test: as above
Conditions: c terminus: a fixed tail appended

Variant	protein stability index
CRTYWPDLDAKIREALVLRSVRVR [K1C]	1.46
DRTYWPDLDAKIREALVLRSVRVR [K1D]	2.06
ERTYWPDLDAKIREALVLRSVRVR [K1E]	2.58
FRTYWPDLDAKIREALVLRSVRVR [K1F]	2.55
GRTYWPDLDAKIREALVLRSVRVR [K1G]	2.53
HRTYWPDLDAKIREALVLRSVRVR [K1H]	2.25
LRTYWPDLDAKIREALVLRSVRVR [K1L]	1.6
MRTYWPDLDAKIREALVLRSVRVR [K1M]	1.79
NRTYWPDLDAKIREALVLRSVRVR [K1N]	2.21
PRTYWPDLDAKIREALVLRSVRVR [K1P]	1.79
RRTYWPDLDAKIREALVLRSVRVR [K1R]	1.92
SRTYWPDLDAKIREALVLRSVRVR [K1S]	1.84
TRTYWPDLDAKIREALVLRSVRVR [K1T]	1.93
YRTYWPDLDAKIREALVLRSVRVR [K1Y]	1.05
KETYWPDLDAKIREALVLRSVRVR [R2E]	2.14
KFTYWPDLDAKIREALVLRSVRVR [R2F]	2.92
KHTYWPDLDAKIREALVLRSVRVR [R2H]	1.54
KKTYWPDLDAKIREALVLRSVRVR [R2K]	2.56
KMTYWPDLDAKIREALVLRSVRVR [R2M]	1.77
KNTYWPDLDAKIREALVLRSVRVR [R2N]	2.14
KPTYWPDLDAKIREALVLRSVRVR [R2P]	2.7
KQTYWPDLDAKIREALVLRSVRVR [R2Q]	2.31
KTTYWPDLDAKIREALVLRSVRVR [R2T]	2.63
KVTYWPDLDAKIREALVLRSVRVR [R2V]	2.43

Variant	protein stability index
KWTYWPDLDAKIREALVLRSVRVR [R2W]	1.32
KYTYWPDLDAKIREALVLRSVRVR [R2Y]	1.09
KRAYWPDLDAKIREALVLRSVRVR [T3A]	1.78
KREYWPDLDAKIREALVLRSVRVR [T3E]	1.28
KRIYWPDLDAKIREALVLRSVRVR [T3I]	1.46
KRLYWPDLDAKIREALVLRSVRVR [T3L]	2.83
KRQYWPDLDAKIREALVLRSVRVR [T3Q]	2.91
KRSYWPDLDAKIREALVLRSVRVR [T3S]	1.6
KRWYWPDLDAKIREALVLRSVRVR [T3W]	1.12
KRTAWPDLDAKIREALVLRSVRVR [Y4A]	1.17
KRTCWPDLDAKIREALVLRSVRVR [Y4C]	1.85
KRTDWPDLDAKIREALVLRSVRVR [Y4D]	2.75
KRTEWPDLDAKIREALVLRSVRVR [Y4E]	2.69
KRTFWPDLDAKIREALVLRSVRVR [Y4F]	1.41
KRTGWPDLDAKIREALVLRSVRVR [Y4G]	2.01
KRTHWPDLDAKIREALVLRSVRVR [Y4H]	2.25
KRTIWPDLDAKIREALVLRSVRVR [Y4I]	1.96
KRTKWPDLDAKIREALVLRSVRVR [Y4K]	1.48
KRTLWPDLDAKIREALVLRSVRVR [Y4L]	2.27
KRTPWPDLDAKIREALVLRSVRVR [Y4P]	1.9
KRTQWPDLDAKIREALVLRSVRVR [Y4Q]	1.93
KRTSWPDLDAKIREALVLRSVRVR [Y4S]	1.67
KRTTWPDLDAKIREALVLRSVRVR [Y4T]	1.82
KRTVWPDLDAKIREALVLRSVRVR [Y4V]	3.54

Variant	protein stability index
KRTWWPDLDAKIREALVLRSVRVR [Y4W]	1.75
KRTYAPDLDAKIREALVLRSVRVR [W5A]	1.86
KRTYCPDLDAKIREALVLRSVRVR [W5C]	1.5
KRTYDPDLDAKIREALVLRSVRVR [W5D]	1.73
KRTYEPDLDAKIREALVLRSVRVR [W5E]	2.79
KRTYHPDLDAKIREALVLRSVRVR [W5H]	2.9
KRTYIPDLDAKIREALVLRSVRVR [W5I]	3.62
KRTYKPDLDAKIREALVLRSVRVR [W5K]	2.01
KRTYNPDLDAKIREALVLRSVRVR [W5N]	1.96
KRTYQPDLDAKIREALVLRSVRVR [W5Q]	2.15
KRTYRPDLDAKIREALVLRSVRVR [W5R]	2.1
KRTYSPDLDAKIREALVLRSVRVR [W5S]	2.66
KRTYTPDLDAKIREALVLRSVRVR [W5T]	1.58
KRTYVPDLDAKIREALVLRSVRVR [W5V]	4.52
KRTYWADLDAKIREALVLRSVRVR [P6A]	2.54
KRTYWCDLDAKIREALVLRSVRVR [P6C]	1.06
KRTYWDDLDAKIREALVLRSVRVR [P6D]	1.28
KRTYWFDLDAKIREALVLRSVRVR [P6F]	2.23
KRTYWGDLDAKIREALVLRSVRVR [P6G]	1.82
KRTYWHDLDAKIREALVLRSVRVR [P6H]	1.96
KRTYWKDLDAKIREALVLRSVRVR [P6K]	1.25
KRTYWQDLDAKIREALVLRSVRVR [P6Q]	3.34
KRTYWSDLDAKIREALVLRSVRVR [P6S]	1.67
KRTYWWDLDAKIREALVLRSVRVR [P6W]	3.99

Variant	protein stability index
KRTYWPALDAKIREALVLRSVRVR [D7A]	1.87
KRTYWPCLDAKIREALVLRSVRVR [D7C]	1.61
KRTYWPELDAKIREALVLRSVRVR [D7E]	1.02
KRTYWPFLDAKIREALVLRSVRVR [D7F]	1.58
KRTYWPLLDAKIREALVLRSVRVR [D7L]	1.82
KRTYWPMLDAKIREALVLRSVRVR [D7M]	2.84
KRTYWPPLDAKIREALVLRSVRVR [D7P]	3.44
KRTYWPRLDAKIREALVLRSVRVR [D7R]	2.62
KRTYWPSLDAKIREALVLRSVRVR [D7S]	2.02
KRTYWPTLDAKIREALVLRSVRVR [D7T]	2.39
KRTYWPVLDAKIREALVLRSVRVR [D7V]	1.23
KRTYWPYLDAKIREALVLRSVRVR [D7Y]	1.37
KRTYWPDADAKIREALVLRSVRVR [L8A]	2.18
KRTYWPDDDAKIREALVLRSVRVR [L8D]	2.83
KRTYWPDEDAKIREALVLRSVRVR [L8E]	2.94
KRTYWPDFDAKIREALVLRSVRVR [L8F]	2
KRTYWPDHDAKIREALVLRSVRVR [L8H]	2.47
KRTYWPDMDAKIREALVLRSVRVR [L8M]	2.72
KRTYWPDNDAKIREALVLRSVRVR [L8N]	1.73
KRTYWPDPDAKIREALVLRSVRVR [L8P]	1.82
KRTYWPDQDAKIREALVLRSVRVR [L8Q]	1.88
KRTYWPDRDAKIREALVLRSVRVR [L8R]	3.06
KRTYWPDTDAKIREALVLRSVRVR [L8T]	2.24
KRTYWPDWDAKIREALVLRSVRVR [L8W]	1.85

Variant	protein stability index
KRTYWPDYDAKIREALVLRSVRVR [L8Y]	3.05
KRTYWPDLEAKIREALVLRSVRVR [D9E]	2.54
KRTYWPDLGAKIREALVLRSVRVR [D9G]	2.88
KRTYWPDLHAKIREALVLRSVRVR [D9H]	2.57
KRTYWPDLNAKIREALVLRSVRVR [D9N]	1.59
KRTYWPDLDFKIREALVLRSVRVR [A10F]	1.52
KRTYWPDLDHKIREALVLRSVRVR [A10H]	3.11
KRTYWPDLDIKIREALVLRSVRVR [A10I]	2.54
KRTYWPDLDLKIREALVLRSVRVR [A10L]	2.05
KRTYWPDLDPKIREALVLRSVRVR [A10P]	2.36
KRTYWPDLDTKIREALVLRSVRVR [A10T]	2.33
KRTYWPDLDVKIREALVLRSVRVR [A10V]	1.93
KRTYWPDLDYKIREALVLRSVRVR [A10Y]	2.61
KRTYWPDLDAAIREALVLRSVRVR [K11A]	1.42
KRTYWPDLDADIREALVLRSVRVR [K11D]	2.29
KRTYWPDLDAEIREALVLRSVRVR [K11E]	2.17
KRTYWPDLDAHIREALVLRSVRVR [K11H]	1.29
KRTYWPDLDAMIREALVLRSVRVR [K11M]	1.04
KRTYWPDLDAPIREALVLRSVRVR [K11P]	2.14
KRTYWPDLDARIREALVLRSVRVR [K11R]	1.47
KRTYWPDLDATIREALVLRSVRVR [K11T]	2.42
KRTYWPDLDAYIREALVLRSVRVR [K11Y]	1.99
KRTYWPDLDAKAREALVLRSVRVR [I12A]	2.01
KRTYWPDLDAKCREALVLRSVRVR [I12C]	2.29

Variant	protein stability index
KRTYWPDLDAKDREALVLRSVRVR [I12D]	1.43
KRTYWPDLDAKEREALVLRSVRVR [I12E]	2.76
KRTYWPDLDAKFREALVLRSVRVR [I12F]	1.93
KRTYWPDLDAKHREALVLRSVRVR [I12H]	2.19
KRTYWPDLDAKKREALVLRSVRVR [I12K]	2.41
KRTYWPDLDAKLREALVLRSVRVR [I12L]	1.81
KRTYWPDLDAKMREALVLRSVRVR [I12M]	2.38
KRTYWPDLDAKQREALVLRSVRVR [I12Q]	2.54
KRTYWPDLDAKRREALVLRSVRVR [I12R]	2.78
KRTYWPDLDAKTREALVLRSVRVR [I12T]	2.7
KRTYWPDLDAKVREALVLRSVRVR [I12V]	2.3
KRTYWPDLDAKYREALVLRSVRVR [I12Y]	1.29
KRTYWPDLDAKIAEALVLRSVRVR [R13A]	1.3
KRTYWPDLDAKICEALVLRSVRVR [R13C]	2.29
KRTYWPDLDAKIGEALVLRSVRVR [R13G]	1.89
KRTYWPDLDAKIHEALVLRSVRVR [R13H]	2.6
KRTYWPDLDAKIKEALVLRSVRVR [R13K]	1.9
KRTYWPDLDAKIMEALVLRSVRVR [R13M]	1.54
KRTYWPDLDAKINEALVLRSVRVR [R13N]	1.61
KRTYWPDLDAKIPEALVLRSVRVR [R13P]	1.79
KRTYWPDLDAKIQEALVLRSVRVR [R13Q]	1.28
KRTYWPDLDAKISEALVLRSVRVR [R13S]	1.43
KRTYWPDLDAKIVEALVLRSVRVR [R13V]	2.31
KRTYWPDLDAKIYEALVLRSVRVR [R13Y]	1.65

Variant	protein stability index
KRTYWPDLDAKIRAALVLRSVRVR [E14A]	1.09
KRTYWPDLDAKIRCALVLRSVRVR [E14C]	1.46
KRTYWPDLDAKIRGALVLRSVRVR [E14G]	2.75
KRTYWPDLDAKIRHALVLRSVRVR [E14H]	1.27
KRTYWPDLDAKIRKALVLRSVRVR [E14K]	1.68
KRTYWPDLDAKIRPALVLRSVRVR [E14P]	2.13
KRTYWPDLDAKIRQALVLRSVRVR [E14Q]	1.88
KRTYWPDLDAKIRSALVLRSVRVR [E14S]	1.13
KRTYWPDLDAKIRTALVLRSVRVR [E14T]	2.42
KRTYWPDLDAKIREELVLRSVRVR [A15E]	2.26
KRTYWPDLDAKIREKLVLRSVRVR [A15K]	1.9
KRTYWPDLDAKIRENLVLRSVRVR [A15N]	1.51
KRTYWPDLDAKIREPLVLRSVRVR [A15P]	1.67
KRTYWPDLDAKIREQLVLRSVRVR [A15Q]	2.04
KRTYWPDLDAKIRETLVLRSVRVR [A15T]	1.72
KRTYWPDLDAKIREVLVLRSVRVR [A15V]	1.04
KRTYWPDLDAKIREWLVLRSVRVR [A15W]	1.62
KRTYWPDLDAKIREYLVLRSVRVR [A15Y]	2.11
KRTYWPDLDAKIREADVLRSVRVR [L16D]	2.8
KRTYWPDLDAKIREAGVLRSVRVR [L16G]	1.31
KRTYWPDLDAKIREAHVLRSVRVR [L16H]	2.94
KRTYWPDLDAKIREAIVLRSVRVR [L16I]	1.95
KRTYWPDLDAKIREANVLRSVRVR [L16N]	2.61
KRTYWPDLDAKIREAPVLRSVRVR [L16P]	2.02

Variant	protein stability index
KRTYWPDLDAKIREASVLRSVRVR [L16S]	2.51
KRTYWPDLDAKIREAVVLRSVRVR [L16V]	2.53
KRTYWPDLDAKIREAWVLRSVRVR [L16W]	3.86
KRTYWPDLDAKIREAYVLRSVRVR [L16Y]	2.06
KRTYWPDLDAKIREALELRSVRVR [V17E]	1.6
KRTYWPDLDAKIREALGLRSVRVR [V17G]	2.11
KRTYWPDLDAKIREALHLRSVRVR [V17H]	3.18
KRTYWPDLDAKIREALILRSVRVR [V17I]	1.11
KRTYWPDLDAKIREALKLRSVRVR [V17K]	1.79
KRTYWPDLDAKIREALLLRSVRVR [V17L]	1.91
KRTYWPDLDAKIREALMLRSVRVR [V17M]	2.18
KRTYWPDLDAKIREALNLRSVRVR [V17N]	5.34
KRTYWPDLDAKIREALQLRSVRVR [V17Q]	1.57
KRTYWPDLDAKIREALRLRSVRVR [V17R]	1.32
KRTYWPDLDAKIREALSLRSVRVR [V17S]	1.95
KRTYWPDLDAKIREALTLRSVRVR [V17T]	1.57
KRTYWPDLDAKIREALWLRSVRVR [V17W]	1.3
